The target in experiment [1] is SsoPCNA1:SsoPCNA2 heterodimer (Sulfolobus solfataricus) (UniProt P57766). Put plainly: SPR; Biacore; MsePCNA2 or SsoPCNA2 immobilised on CM5, 1 μM MsePCNA1 or SsoPCNA1 applied, then MsePCNA3 or SsoPCNA3 injected at various concentrations; plateau signal fitted to a Langmuir isotherm; 10 mM HEPES-HCl pH 7.4, 150 mM NaCl. In general terms: Surface plasmon resonance follows binding to a sensor surface in real time, without labels.

Experiment [2] deals with T1, SsoPCNA1:MsePCNA2 complex (Sulfolobus solfataricus | …, UniProt P57766 1-249; A4YHP5 1-244).
T1 construct: SsoPCNA1, PCNA subunit 1 of Sulfolobus solfataricus; as m4; MsePCNA2 (Msed_1792), PCNA homologue of Metallosphaera sedula; as m2; Formed on the SPR chip: MsePCNA2 immobilised on CM5, then 1 μM SsoPCNA1 applied; also called immobilised MsePCNA2 that tethered SsoPCNA1
T1 sequence (looked up) 1: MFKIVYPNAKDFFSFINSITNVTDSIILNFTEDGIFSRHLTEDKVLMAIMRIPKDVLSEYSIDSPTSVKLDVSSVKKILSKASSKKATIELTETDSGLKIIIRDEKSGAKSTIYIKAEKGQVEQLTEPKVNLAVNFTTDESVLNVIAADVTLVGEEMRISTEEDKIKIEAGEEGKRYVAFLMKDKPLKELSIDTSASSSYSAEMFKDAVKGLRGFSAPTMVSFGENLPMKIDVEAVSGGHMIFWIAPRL
T1 sequence (looked up) 2: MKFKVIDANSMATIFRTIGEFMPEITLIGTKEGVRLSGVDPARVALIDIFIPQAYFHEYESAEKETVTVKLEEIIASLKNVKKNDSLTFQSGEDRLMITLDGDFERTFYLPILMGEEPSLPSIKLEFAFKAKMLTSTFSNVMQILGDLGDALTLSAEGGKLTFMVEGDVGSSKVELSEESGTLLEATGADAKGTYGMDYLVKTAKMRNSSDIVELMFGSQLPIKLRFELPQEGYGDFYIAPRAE
Described as above.

Experiment [3] addresses T2, MsePCNA1:MsePCNA2 heterodimer (Metallosphaera sedula, UniProt A4YCS6 1-247; A4YHP5 1-244).
T2 construct: MsePCNA1 (Msed_0051), PCNA homologue of Metallosphaera sedula; as m1; MsePCNA2 (Msed_1792), PCNA homologue of Metallosphaera sedula; as m2; In SPR formed on the chip: MsePCNA2 immobilised on CM5, then 1 μM MsePCNA1 applied; In the pull-down and SEC formed in the mixture; Tag removal is said for the pull-down only; also called immobilised MsePCNA2 with MsePCNA1; MsePCNA1 and MsePCNA2 together; …
T2 sequence (looked up) 1: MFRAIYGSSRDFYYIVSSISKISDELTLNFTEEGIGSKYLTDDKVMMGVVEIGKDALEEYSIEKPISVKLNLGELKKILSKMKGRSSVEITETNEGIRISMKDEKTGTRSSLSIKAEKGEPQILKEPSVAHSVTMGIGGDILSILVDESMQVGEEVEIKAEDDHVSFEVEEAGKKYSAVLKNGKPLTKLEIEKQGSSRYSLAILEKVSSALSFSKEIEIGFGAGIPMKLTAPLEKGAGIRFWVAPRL
T2 sequence (looked up) 2: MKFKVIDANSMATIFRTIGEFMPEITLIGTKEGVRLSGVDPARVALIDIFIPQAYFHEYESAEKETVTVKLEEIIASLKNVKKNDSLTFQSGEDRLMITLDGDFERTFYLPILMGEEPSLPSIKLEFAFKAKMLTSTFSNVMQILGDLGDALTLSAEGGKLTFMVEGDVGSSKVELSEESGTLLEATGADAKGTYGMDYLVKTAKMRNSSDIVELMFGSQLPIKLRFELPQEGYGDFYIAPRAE
The description is as above.

For experiment [4], the target named is T3, SsoPCNA2 (Sulfolobus solfataricus).
T3 chain: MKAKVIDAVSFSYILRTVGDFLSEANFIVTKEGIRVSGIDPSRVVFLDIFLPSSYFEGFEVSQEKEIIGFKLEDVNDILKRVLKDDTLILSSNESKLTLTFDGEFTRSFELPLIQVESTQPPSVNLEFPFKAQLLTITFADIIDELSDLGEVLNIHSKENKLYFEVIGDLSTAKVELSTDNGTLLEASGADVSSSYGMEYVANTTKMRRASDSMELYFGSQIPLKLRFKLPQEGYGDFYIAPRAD
Kind of experiment: SPR; 40 nM MsePCNA1.

In experiment [5] the target is T4, MsePCNA2 (Metallosphaera sedula, UniProt A4YHP5 1-244).
T4 chain: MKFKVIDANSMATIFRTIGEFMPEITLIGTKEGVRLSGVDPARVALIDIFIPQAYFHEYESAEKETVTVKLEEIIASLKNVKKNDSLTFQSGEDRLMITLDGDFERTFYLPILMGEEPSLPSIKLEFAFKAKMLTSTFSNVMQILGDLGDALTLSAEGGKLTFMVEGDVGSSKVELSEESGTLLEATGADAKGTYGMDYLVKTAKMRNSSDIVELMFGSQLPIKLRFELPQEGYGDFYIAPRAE
Put plainly: SPR; 40 nM MsePCNA1.

Experiment [6] addresses T3, SsoPCNA2. Put plainly: SPR; Biacore; about 350 RU of MsePCNA2 or SsoPCNA2 immobilised on Sensor Chip CM5; MsePCNA1 or SsoPCNA1 injected (2.5, 5, 10, 20, 40 nM), kinetic fit; 10 mM HEPES-HCl pH 7.4, 150 mM NaCl.
Experiment [7] concerns the target T3, SsoPCNA2. Kind of experiment: SPR; 5 nM MsePCNA1.
The target of experiment [8] is T4, MsePCNA2. Kind of experiment: SPR; 5 nM MsePCNA1.
Experiment [9] concerns the target T4, MsePCNA2. Kind of experiment: SPR; 40 nM MsePCNA1.
In experiment [10] the target is T3, SsoPCNA2. Kind of experiment: SPR; 20 nM MsePCNA1.
The target of experiment [11] is T4, MsePCNA2. Put plainly: SPR; 20 nM MsePCNA1.
Experiment [12] addresses T3, SsoPCNA2. Put plainly: SPR; 50 nM MsePCNA1.
Experiment [13] has as its target T3, SsoPCNA2. Put plainly: SPR; 10 nM MsePCNA1.
Experiment [14] has as its target T4, MsePCNA2. Put plainly: SPR; 10 nM MsePCNA1.
For experiment [15], the target named is T4, MsePCNA2. Kind of experiment: SPR; 1.25 nM MsePCNA1.
In experiment [16] the target is T4, MsePCNA2. Kind of experiment: SPR; 1.25 nM MsePCNA1.
In experiment [17] the target is T4, MsePCNA2. Put plainly: SPR; 20 nM MsePCNA1.
In experiment [18] the target is T3, SsoPCNA2. Kind of experiment: SPR; 2.5 nM MsePCNA1.
For experiment [19], the target named is T4, MsePCNA2. Put plainly: SPR; 2.5 nM MsePCNA1.
Experiment [20] concerns the target T4, MsePCNA2. Kind of experiment: SPR; 10 nM MsePCNA1.
Experiment [21] has as its target T3, SsoPCNA2. Put plainly: SPR; 2.5 nM MsePCNA1.
The target of experiment [22] is T4, MsePCNA2. Put plainly: SPR; 2.5 nM MsePCNA1.
The target of experiment [23] is T3, SsoPCNA2. Put plainly: SPR; 5 nM MsePCNA1.
The target in a further experiment is T5, MsePCNA1 (Metallosphaera sedula, UniProt A4YCS6 1-247).
T5 construct: MsePCNA1 (Msed_0051), PCNA homologue of Metallosphaera sedula; 'His6-tag-removed' is said for the pull-down only; also called Msed_0051; M. sedula PCNA homologue 1
T5 sequence (looked up): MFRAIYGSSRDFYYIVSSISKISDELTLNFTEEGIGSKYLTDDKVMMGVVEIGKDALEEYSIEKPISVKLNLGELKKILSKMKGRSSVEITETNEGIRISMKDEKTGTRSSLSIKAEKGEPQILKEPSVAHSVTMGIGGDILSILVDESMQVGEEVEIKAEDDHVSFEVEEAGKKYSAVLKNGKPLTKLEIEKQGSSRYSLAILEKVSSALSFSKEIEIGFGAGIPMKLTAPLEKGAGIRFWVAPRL
Put plainly: SPR; Biacore; about 350 RU of MsePCNA2 or SsoPCNA2 immobilised on Sensor Chip CM5; MsePCNA1 or SsoPCNA1 injected (2.5, 5, 10, 20, 40 nM), kinetic fit; 10 mM HEPES-HCl pH 7.4, 150 mM NaCl. Conditions: both partners purified.

The target in the next experiment is T6, SsoPCNA1 (Sulfolobus solfataricus, UniProt P57766 1-249).
T6 construct: SsoPCNA1, PCNA subunit 1 of Sulfolobus solfataricus; also called S. solfataricus PCNA1
T6 sequence (looked up): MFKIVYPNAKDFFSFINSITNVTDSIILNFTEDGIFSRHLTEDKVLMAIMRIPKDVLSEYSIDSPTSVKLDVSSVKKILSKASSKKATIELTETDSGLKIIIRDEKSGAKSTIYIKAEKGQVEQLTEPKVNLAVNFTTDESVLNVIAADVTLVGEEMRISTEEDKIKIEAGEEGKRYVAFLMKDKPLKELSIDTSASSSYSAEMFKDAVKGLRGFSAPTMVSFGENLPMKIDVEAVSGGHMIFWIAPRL
Described as above. Conditions: both partners purified.

Read-outs that look alike come from different tables or passages of the source.

The Kd is the free concentration of one partner at which half of the binding sites on the other are occupied at equilibrium, for simple one-to-one binding. In the case of SsoPCNA3 (natural protein), the equilibrium dissociation constant (Kd) is 200 nM in [1], 170 nM in experiment [2] and 190 nM in experiment [3].

B1: MsePCNA3 (natural protein, Metallosphaera sedula, UniProt A4YIY6 1-245, looked up)
chain: MRIAYANAMDFKTVIEALSKLIDEVTFTFTSSGLDVVAVDRAHISLIKLHFPKEAFEEFDVEDQFRFGFNTQYMLKVMASAKRKEKIEMESREESEIVIRMLGEPPREFTIRNIEVPIQELPELKLDFDVKAKITSGGFKKAVSEIATVSDSVEIDATEMEIKLRSKESTEIEVEFSKEMGGLQEIEVKKPSVSSYPSDYLEDVLVLTRLSGFLNLLFSEQKPLQLEFNMDNGGSVVYLLAPNVG
notes: MsePCNA3 (Msed_2250), PCNA homologue of Metallosphaera sedula; 'His6-tag-removed' is said for the pull-down only; also called Msed_2250; M. sedula PCNA homologue 3
Take B1: the dissociation constant (Kd) in experiment [2] (both partners purified) was 380 nM; in [3] (both partners purified) it was 43 nM.

B2: MsePCNA1 (natural protein)
chain: MFRAIYGSSRDFYYIVSSISKISDELTLNFTEEGIGSKYLTDDKVMMGVVEIGKDALEEYSIEKPISVKLNLGELKKILSKMKGRSSVEITETNEGIRISMKDEKTGTRSSLSIKAEKGEPQILKEPSVAHSVTMGIGGDILSILVDESMQVGEEVEIKAEDDHVSFEVEEAGKKYSAVLKNGKPLTKLEIEKQGSSRYSLAILEKVSSALSFSKEIEIGFGAGIPMKLTAPLEKGAGIRFWVAPRL
The koff is the rate constant with which the complex falls apart. As usually defined, the kon is the second-order rate constant of association. A higher kon goes with fast association. In the case of B2, the Kd was determined as 36 nM with SsoPCNA2 [4]; 0.253 nM with MsePCNA2 [5]; 1.6 nM in the experiment with SsoPCNA2 [6]; 12.9 nM in the experiment with SsoPCNA2 [10]; 0.215 nM with MsePCNA2 [11]; 27.5 nM with SsoPCNA2 [12]. For the same molecule, the Kd with SsoPCNA2 [13] stood at 7.02 nM; with MsePCNA2 [14], 0.249 nM; with MsePCNA2 [16], 0.531 nM; with SsoPCNA2 [18] it was 6.81 nM; with MsePCNA2 [19], 0.396 nM; with SsoPCNA2 [23], 6.37 nM. The koff was 0.0012 s⁻¹ in the experiment with SsoPCNA2 [6]; 0.00132 s⁻¹ in the experiment with SsoPCNA2 [7]; 0.00011 s⁻¹ in the experiment with MsePCNA2 [8]; 4.29e-05 s⁻¹ in the experiment with MsePCNA2 [9]; 0.000128 s⁻¹ in the experiment with MsePCNA2 [15]; 5.79e-05 s⁻¹ in the experiment with MsePCNA2 [17]. Besides, the koff turned out to be 7.99e-05 s⁻¹ with MsePCNA2 [20], 0.00134 s⁻¹ with SsoPCNA2 [21] and 0.000121 s⁻¹ in the experiment with MsePCNA2 [22]. This molecule came in with a kon with SsoPCNA2 [6] of 130000 M⁻¹ s⁻¹.

B3: MsePCNA2 (natural protein, Metallosphaera sedula, UniProt A4YHP5 1-244, looked up)
chain: MKFKVIDANSMATIFRTIGEFMPEITLIGTKEGVRLSGVDPARVALIDIFIPQAYFHEYESAEKETVTVKLEEIIASLKNVKKNDSLTFQSGEDRLMITLDGDFERTFYLPILMGEEPSLPSIKLEFAFKAKMLTSTFSNVMQILGDLGDALTLSAEGGKLTFMVEGDVGSSKVELSEESGTLLEATGADAKGTYGMDYLVKTAKMRNSSDIVELMFGSQLPIKLRFELPQEGYGDFYIAPRAE
notes: MsePCNA2 (Msed_1792), PCNA homologue of Metallosphaera sedula; 'His6-tag-removed' is said for the pull-down only; also called Msed_1792; M. sedula PCNA homologue 2
As for B3, in the experiment with MsePCNA1, binding was characterised by a dissociation constant (Kd) of 0.33 nM, the koff is 8.9e-05 s⁻¹ and the on-rate constant (kon) turned out to be 280000 M⁻¹ s⁻¹. Besides, in the experiment with SsoPCNA1, the Kd turned out to be 1.8 nM, the koff came to 0.00044 s⁻¹ and the kon is 270000 M⁻¹ s⁻¹.

The record behind these values is publication PMC4894655, “Three proliferating cell nuclear antigen homologues from Metallosphaera sedula form a head-to-tail heterotrimer” (Scientific Reports, 2016).
